This passage reports binding result and IC50 results from paper PMC3861664 (The Journal of Biological Chemistry, 2013).

Experiment [1] deals with T1, glucagon receptor extracellular domain, wild type (recombinant, soluble) (Homo sapiens).
T1 construct: glucagon receptor (GCGR), human, extracellular domain; A biotinylated form was used for phage selections; also called GCGR ECD; WT ECD
T1 chain: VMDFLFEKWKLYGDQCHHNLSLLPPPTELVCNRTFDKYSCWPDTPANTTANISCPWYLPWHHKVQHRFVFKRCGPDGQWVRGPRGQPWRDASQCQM
In words: AlphaScreen or HTRF; competition: soluble WT or G40S GCGR ECD against WT GCGR ECD on donor beads for binding to mAb7, its variants (IgG) or mAb1 on acceptor beads. The following applies: both partners purified.

For experiment [2], the target named is T2, glucagon receptor extracellular domain with the naturally occurring G40S mutation (recombinant, soluble) (human).
T2 chain: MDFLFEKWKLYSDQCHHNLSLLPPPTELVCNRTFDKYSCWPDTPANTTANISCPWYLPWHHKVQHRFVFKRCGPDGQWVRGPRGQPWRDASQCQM
In words: AlphaScreen competition with WT ECD.

Numbering of substitutions follows the chain as printed. In names and notes the source's numbering stands.

B1: mAb1, inhibitory anti-GCGR monoclonal antibody (antibody, V domains shown)
VH: QVQLVESGGGVVQPGRSLRLSCAASGFTFSSYGMHWVRQAPGKGLEWVAVMWYDGSNKDYVDSVKGRFTISRDNSKNTLYLQMNRLRAEDTAVYYCAREKDHYDILTGYNYYYGLDVWGQGTTVTVSS
VL: DIQMTQSPSSLSASVGDRVTITCRASQGIRNDLGWYQQKPGKAPKRLIYAASSLESGVPSRFSGSGSGTEFTLTISSVQPEDFVTYYCLQHNSNPLTFGGGTKVEIK
notes: as the heavy chain of the mAb1 Fab in PDB 4LF3 and 4ERS; as the light chain of the mAb1 Fab in PDB 4LF3 and 4ERS; also called anti-GCGR mAb1
For B1, the binding result in experiment [1] is recorded as “binds”.

B2: mAb7.v35, humanized mAb7 with S54T/N97G (IgG) (antibody, V domains shown)
VH: EVQLVESGPGLVKPSETLSLSCTVSGDSITSGFWNWIRQPPGKGLEWIGYIGFTGSTYYNPSLKSRVTISRDTSKNQYSLKLSSVTAADTAVYYCASVDGSAALDYWGQGTLVTVSS
VL: DIVMTQTPLSLPVTPGQPASISCRSSQSLVHSNGNTYLHWYLQKPGQSPQLLIYKVSNRFSGVPDRFSGSGSGTDFTLKISRVEAEDVGVYYCSQSTHVPWTFGQGTKVEIK
notes: mAb7.v1 heavy chain with S54T (CDR H2) and N97G (CDR H3); that is the heavy chain of m13 (PDB 4LEX) with S28T put back and N97G added; as the light chain of m13 (PDB 4LEX); IgG; The methods say that mutations found in the humanised background were also introduced into murine mAb7 clones; source: recombinant antibody
Turning to B2, the binding result in experiment [1] is listed as “binds”. The concentration for half-maximal inhibition (IC50) in experiment [2] worked out at 21 nM.

B3: mAb7.v19, humanized mAb7 with N97G (IgG) (antibody, V domains shown)
VH: B2 VH with T54S
VL: B2 VL
notes: mAb7.v1 heavy chain with N97G (CDR H3); that is the heavy chain of m13 (PDB 4LEX) with S28T and S54T put back and N97G added; as the light chain of m13 (PDB 4LEX); IgG; also called N97G containing antibody; source: recombinant antibody
With B3, in experiment [1], the binding result was “binds”. For the same molecule, the IC50 in experiment [2] was found to be 87 nM.

B4: mAb7.v1, humanized version of mAb7 (IgG) (antibody, V domains shown)
VH: B2 VH with T54S, G100N
VL: B2 VL
notes: as the light chain of m13 (PDB 4LEX); IgG; source: recombinant antibody
With B4, the binding result in experiment [1] is “binds”.

B5: mAb7.v11, humanized mAb7 with S54T (IgG) (antibody, V domains shown)
VH: B2 VH with G100N
VL: B2 VL
notes: mAb7.v1 heavy chain with S54T (CDR H2); that is the heavy chain of m13 (PDB 4LEX) with S28T put back; as the light chain of m13 (PDB 4LEX); IgG; also called S54T alone; source: recombinant antibody
In the case of B5, in experiment [1], the binding result is on record as “binds”.
